Experimental data from patent US20230035659A1, “Compositions and Methods for TTR Gene Editing and Treating ATTR Amyloidosis Comprising a Corticosteroid or Use Thereof” (Intellia Therapeutics, Inc., priority 2019, published 2023).
Strand notation (5' to 3'): a small letter for the sugar, then the base; units joined by * are phosphorothioate-linked, units joined directly phosphodiester-linked; [ ] holds rarer units or linkages, { } end groups; capitals alone tell only the bases. m = 2'-O-methyl; r = 2'-OH (RNA)

Key:
TTR [1] = experiment: TTR editing in primary human hepatocytes treated with LNP formulated Spy Cas9 mRNA (SEQ ID NO: 2) and sgRNAs, 12.5 ng mRNA; format: cell-based; conditions: LNP formulated Spy Cas9 mRNA (SEQ ID NO: 2) and sgRNA, 12.5 ng mRNA, 3.9 nM sgRNA, 72 hours
Method: (§1) Primary liver hepatocytes. Primary human liver hepatocytes (PHH) and primary cynomolgus liver hepatocytes (PCH) (Gibco) were cultured per the manufacturer's protocol (Invitrogen, protocol 11.28.2012). In brief, the cells were thawed and resuspended in hepatocyte thawing medium with supplements (Gibco, Cat. CM7000) followed by centrifugation at 100 g for 10 minutes for human and 80 g for 4 minutes for cyno. The supernatant was discarded and the pelleted cells resuspended in hepatocyte plating medium plus supplement pack (Invitrogen, Cat. A1217601 and CM3000). Cells were counted and plated on Bio-coat collagen I coated 96-well plates (ThermoFisher, Cat. 877272) at a density of 33,000 cells/well for human or 60,000 cells/well for cyno (or 65,000 cells/well when assaying effects on TTR protein, described further below). Plated cells were allowed to settle and adhere for 6 or 24 hours in a tissue culture incubator at 37° C. and 5% CO2 atmosphere. After incubation cells were checked for monolayer formation and media was replaced with hepatocyte culture medium with serum-free supplement pack (Invitrogen, Cat. A1217601 and CM4000).
In general, the lipid nanoparticle components were dissolved in 100% ethanol with the lipid component of various molar ratios. The RNA cargos were dissolved in 25 mM citrate, 100 mM NaCl, pH 5.0, resulting in a concentration of RNA cargo of approximately 0.45 mg/mL. The LNPs were formulated with a lipid amine to RNA phosphate (N:P) molar ratio of about 4.5 or about 6, with the ratio of mRNA to gRNA at 1:1 by weight.
The LNPs were formed by microfluidic mixing of the lipid and RNA solutions using a Precision Nanosystems NanoAssemblr™ Benchtop Instrument, according to the manufacturer's protocol. A 2:1 ratio of aqueous to organic solvent was maintained during mixing using differential flow rates. After mixing, the LNPs were collected, diluted in water (approximately 1:1 v/v), held for 1 hour at room temperature, and further diluted with water (approximately 1:1 v/v) before final buffer exchange. The final buffer exchange into 50 mM Tris, 45 mM NaCl, 5% (w/v) sucrose, pH 7.5 (TSS) was completed with PD-10 desalting columns (GE). If required, formulations were concentrated by centrifugation with Amicon 100 kDa centrifugal filters (Millipore). The resulting mixture was then filtered using a 0.2 μm sterile filter. The final LNP was stored at −80° C. until further use.
(§2) Additional PCR was performed per the manufacturer's protocols (Illumina) to add chemistry for sequencing. The amplicons were sequenced on an Illumina MiSeq instrument. The reads were aligned to a reference genome (e.g., the human reference genome (hg38), the cynomologus reference genome (mf5), the rat reference genome (rn6), or the mouse reference genome (mm10)) after eliminating those having low quality scores. The resulting files containing the reads were mapped to the reference genome (BAM files), where reads that overlapped the target region of interest were selected and the number of wild type reads versus the number of reads which contain an insertion, substitution, or deletion was calculated.
(§3) The editing percentage (e.g., the “editing efficiency” or “percent editing” or “indel frequency”) is defined as the total number of sequence reads with insertions/deletions (“indels”) or substitutions over the total number of sequence reads, including wild type.
Lipid nanoparticle formulations of modified sgRNAs targeting human TTR and the cyno matched sgRNA sequences were tested on primary human hepatocytes and primary cyno hepatocytes in a dose response curve. Primary human and cyno hepatocytes were plated as described in Example 1. Both cell lines were incubated at 37° C., 5% CO2 for 24 hours prior to treatment with LNPs. The LNPs used in the experiments detailed in Tables 18-21 were prepared using the Nanoassemblr™ procedure, each containing the specified sgRNA and Cas9 mRNA (SEQ ID NO:2), each having Lipid. […]

[2] = tested on: potential off-target genomic sites; experiment: Off-target analysis by oligo insertion based assay in primary human hepatocytes (sgRNAs); format: cell-based; conditions: 100 ng Cas9 mRNA, 25 nM sgRNA, 12.5 nM donor oligo, 48 h
Method: Off-target analysis of sgRNAs targeting TTR was performed in primary human hepatocytes (PHH) as described in Example 5, with the following modifications. PHH were plated at a density of 33,000 cells per well on collagen-coated 96-well plates as described in Example 1. Twenty-four hours post plating, cells were washed with media and transfected using Lipofectamine RNAiMAX (ThermoFisher, Cat. 13778150) as described in Example 1. Cells were transfected with a lipoplex containing 100 ng Cas9 mRNA, immediately followed by the addition of another lipoplex containing 25 nM of the sgRNA and 12.5 nM of the donor oligo (0.3 μL/well). Cells were lysed 48 hours post-transfection and gDNA was extracted and analyzed as further described in Example 5. The data is graphically represented in FIG. 20.
Fewer sites were detected in PHH for every guide tested as compared to the HekCas9 cell line, with no unique sites detected in PHH alone.

TTR [3] = experiment: TTR editing dose response (EC50, maximum editing) in primary human hepatocytes treated with LNP formulated U-depleted Spy Cas9 mRNA and sgRNAs; format: cell-based; conditions: LNP with U-depleted Spy Cas9 mRNA and cyno specific sgRNA, 8 point 3-fold dose response starting at 300 ng mRNA, 72 hours
Method: as §1
(§4) For LNPs prepared using the cross-flow technique, the LNPs were formed by impinging jet mixing of the lipid in ethanol with two volumes of RNA solutions and one volume of water. The lipid in ethanol is mixed through a mixing cross with the two volumes of RNA solution. A fourth stream of water is mixed with the outlet stream of the cross through an inline tee. (See WO2016010840 FIG. 2.) The LNPs were held for 1 hour at room temperature, and further diluted with water (approximately 1:1 v/v). Diluted LNPs were concentrated using tangential flow filtration on a flat sheet cartridge (Sartorius, 100 kD MWCO) and then buffer exchanged by diafiltration into 50 mM Tris, 45 mM NaCl, 5% (w/v) sucrose, pH 7.5 (TSS). Alternatively, the final buffer exchange into TSS was completed with PD-10 desalting columns (GE). If required, formulations were concentrated by centrifugation with Amicon 100 kDa centrifugal filters (Millipore). The resulting mixture was then filtered using a 0.2 μm sterile filter. The final LNP was stored at 4° C. or −80° C. until further use.
as §2, §3
(§5) Lipid nanoparticle formulations of modified sgRNAs targeting human TTR and the cyno matched sgRNA sequences were tested on primary human hepatocytes and primary cyno hepatocytes in a dose response curve. Primary human and cyno hepatocytes were plated as described in Example 1. Both cell lines were incubated at 37° C., 5% CO2 for 24 hours prior to treatment with LNPs. The LNPs used in the experiments detailed in Tables 20-22 were prepared using the cross-flow procedure described above but purified using PD-10 columns (GE Healthcare Life Sciences) and concentrated using Amicon centrifugal filter units (Millipore Sigma), each containing the specified sgRNA and Cas9 mRNA (SEQ ID NO:1). […] LNPs were incubated in hepatocyte maintenance media containing 6% cyno serum at 37° C., 5% CO2 for 5 minutes. […]

TTR [4] = experiment: TTR editing dose response (EC50, maximum editing) in primary cyno hepatocytes treated with LNP formulated U-depleted Spy Cas9 mRNA and sgRNAs; format: cell-based, cynomolgus monkey
Method: as §1, §4, §2, §3, §5

[5] = LNP formulated U-depleted Spy Cas9 mRNA and cyno specific sgRNAs

Row | Molecule | 12.5 ng mRNA, 3.9 nM sgRNA, Avg % Edit (TTR [1]) | # Sites in PHH (off-target integration sites detected) [2] | Max Editing (TTR [3]) | Max Editing (TTR [4]; [5]) | Max Editing (TTR [4]; LNP formulated U-depleted Spy Cas9 mRNA and human specific sgRNAs)
1 | G000497: TTR sgRNA modified sequence, Human, SEQ ID NO: 104; guide sequence of CR003335 (nucleic acid) guide: mC*mU*mG*rCrUrCrCrUrCrCrUrCrUrGrCrCrUrUrGrCrGrUrUrUrUrArGrAmGmCmUmAmGmAmAmAmUmAmGmCrArArGrUrUrArArArArUrArArGrGrCrUrArGrUrCrCrGrUrUrArUrCrAmAmCmUmUmGmAmAmAmAmAmGmUmGmGmCmAmCmCmGmAmGmUmCmGmGmUmGmCmU*mU*mU*mU | 15.10% | 3 |  |  | 
2 | G000492: TTR sgRNA modified sequence, Human, SEQ ID NO: 99; guide sequence of CR003342 (nucleic acid) guide: mC*mU*mU*rCrUrCrUrArCrArCrCrCrArGrGrGrCrArCrGrUrUrUrUrArGrAmGmCmUmAmGmAmAmAmUmAmGmCrArArGrUrUrArArArArUrArArGrGrCrUrArGrUrCrCrGrUrUrArUrCrAmAmCmUmUmGmAmAmAmAmAmGmUmGmGmCmAmCmCmGmAmGmUmCmGmGmUmGmCmU*mU*mU*mU | 15.87% | 5 |  |  | 
3 | G000495: TTR sgRNA modified sequence, Human, SEQ ID NO: 102; guide sequence of CR003343 (nucleic acid) guide: mC*mA*mG*rArGrGrArCrArCrUrUrGrGrArUrUrCrArCrGrUrUrUrUrArGrAmGmCmUmAmGmAmAmAmUmAmGmCrArArGrUrUrArArArArUrArArGrGrCrUrArGrUrCrCrGrUrUrArUrCrAmAmCmUmUmGmAmAmAmAmAmGmUmGmGmCmAmCmCmGmAmGmUmCmGmGmUmGmCmU*mU*mU*mU | 23.97% | 1 |  |  | 
4 | G000504: TTR Cyno specific sgRNA modified sequence, SEQ ID NO: 116; guide sequence of CR005364 (nucleic acid) guide: mA*mA*mA*rGrGrCrUrGrCrUrGrArUrGrArGrArCrCrUrGrUrUrUrUrArGrAmGmCmUmAmGmAmAmAmUmAmGmCrArArGrUrUrArArArArUrArArGrGrCrUrArGrUrCrCrGrUrUrArUrCrAmAmCmUmUmGmAmAmAmAmAmGmUmGmGmCmAmCmCmGmAmGmUmCmGmGmUmGmCmU*mU*mU*mU |  |  | 7.16% | 98.04% | 7.16%
5 | G000501: TTR sgRNA modified sequence, Human, SEQ ID NO: 108; guide sequence of CR005300 (nucleic acid) guide: mU*mC*mA*rCrArGrArArArCrArCrUrCrArCrCrGrUrArGrUrUrUrUrArGrAmGmCmUmAmGmAmAmAmUmAmGmCrArArGrUrUrArArArArUrArArGrGrCrUrArGrUrCrCrGrUrUrArUrCrAmAmCmUmUmGmAmAmAmAmAmGmUmGmGmCmAmCmCmGmAmGmUmCmGmGmUmGmCmU*mU*mU*mU | 32.30% | 0 |  |  | 
6 | G000503: TTR Cyno specific sgRNA modified sequence, SEQ ID NO: 115; guide sequence of CR005372 (nucleic acid) guide: mA*mA*mA*rArGrGrCrUrGrCrUrGrArUrGrArGrArCrCrGrUrUrUrUrArGrAmGmCmUmAmGmAmAmAmUmAmGmCrArArGrUrUrArArArArUrArArGrGrCrUrArGrUrCrCrGrUrUrArUrCrAmAmCmUmUmGmAmAmAmAmAmGmUmGmGmCmAmCmCmGmAmGmUmCmGmGmUmGmCmU*mU*mU*mU |  |  |  | 83.41% | 
7 | G000487: TTR sgRNA modified sequence, Human, SEQ ID NO: 94; guide sequence of CR003357 (nucleic acid) guide: mU*mU*mC*rUrUrUrGrGrCrArArCrUrUrArCrCrCrArGrGrUrUrUrUrArGrAmGmCmUmAmGmAmAmAmUmAmGmCrArArGrUrUrArArArArUrArArGrGrCrUrArGrUrCrCrGrUrUrArUrCrAmAmCmUmUmGmAmAmAmAmAmGmUmGmGmCmAmCmCmGmAmGmUmCmGmGmUmGmCmU*mU*mU*mU | 17.37% | 0 |  |  | 
8 | G000491: TTR sgRNA modified sequence, Human, SEQ ID NO: 98; guide sequence of CR003338 (nucleic acid) guide: mA*mU*mA*rCrCrArGrUrCrCrArGrCrArArGrGrCrArGrGrUrUrUrUrArGrAmGmCmUmAmGmAmAmAmUmAmGmCrArArGrUrUrArArArArUrArArGrGrCrUrArGrUrCrCrGrUrUrArUrCrAmAmCmUmUmGmAmAmAmAmAmGmUmGmGmCmAmCmCmGmAmGmUmCmGmGmUmGmCmU*mU*mU*mU | 31.60% | 7 |  |  | 
9 | G000496: TTR sgRNA modified sequence, Human, SEQ ID NO: 103; guide sequence of CR005304 (nucleic acid) guide: mG*mG*mC*rCrGrUrGrCrArUrGrUrGrUrUrCrArGrArArGrUrUrUrUrArGrAmGmCmUmAmGmAmAmAmUmAmGmCrArArGrUrUrArArArArUrArArGrGrCrUrArGrUrCrCrGrUrUrArUrCrAmAmCmUmUmGmAmAmAmAmAmGmUmGmGmCmAmCmCmGmAmGmUmCmGmGmUmGmCmU*mU*mU*mU | 30.73% | 0 |  |  | 
10 | G000498: TTR sgRNA modified sequence, Human, SEQ ID NO: 105; guide sequence of CR003359 (nucleic acid) guide: mA*mG*mU*rGrArGrUrCrUrGrGrArGrArGrCrUrGrCrArGrUrUrUrUrArGrAmGmCmUmAmGmAmAmAmUmAmGmCrArArGrUrUrArArArArUrArArGrGrCrUrArGrUrCrCrGrUrUrArUrCrAmAmCmUmUmGmAmAmAmAmAmGmUmGmGmCmAmCmCmGmAmGmUmCmGmGmUmGmCmU*mU*mU*mU | 24.43% | 19 |  |  | 
11 | G000485: TTR sgRNA modified sequence, Human, SEQ ID NO: 92; guide sequence of CR003336 (nucleic acid) guide: mC*mC*mU*rCrCrUrCrUrGrCrCrUrUrGrCrUrGrGrArCrGrUrUrUrUrArGrAmGmCmUmAmGmAmAmAmUmAmGmCrArArGrUrUrArArArArUrArArGrGrCrUrArGrUrCrCrGrUrUrArUrCrAmAmCmUmUmGmAmAmAmAmAmGmUmGmGmCmAmCmCmGmAmGmUmCmGmGmUmGmCmU*mU*mU*mU | 14.23% | 3 |  |  | 
